In patent publication US20240409647A1 (SINOMAB BIOSCIENCE, published 2024) one finds Kd, koff and kon data, which are given here for 5 molecules.

In one experiment the target is T1, human TSLP (R&D systems) (human, UniProt Q969D9 29-159).
T1 construct: also called thymic stromal lymphopoietin
As to the kind of experiment: BLI (Octet RED96), binder captured via anti-human Fab CH1, TSLP in solution. In general terms: In BLI a coated tip is dipped into the sample, and binding shifts an interference pattern.

Experiment [1] deals with T2, human IL-33 (R&D systems) (human, UniProt O95760 112-270).
T2 sequence (looked up): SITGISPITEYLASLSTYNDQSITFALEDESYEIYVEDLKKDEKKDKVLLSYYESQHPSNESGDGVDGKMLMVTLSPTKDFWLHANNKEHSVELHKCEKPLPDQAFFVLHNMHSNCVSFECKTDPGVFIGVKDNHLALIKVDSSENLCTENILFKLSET
Nature of the experiment: BLI (Octet RED96), binder captured via anti-human Fab CH1, IL33 in solution.
Experimental: (§1) Biosensors immobilized with irrelevant antibody (SM03, anti-human CD22 chimeric IgG1 antibody, SinoMab BioScience Limited, 20 μg/mL) were used as control reference.

As usually defined, the Kd is the concentration at which binding is half-saturated. Low readings indicate tighter binding, high ones weaker binding. As a reminder, the koff is the rate constant with which the complex falls apart. Read a low koff as a long-lived complex. Usually kon stands for a measure of how fast the partners come together.

Experimental for human TSLP (R&D systems): as §1

B1: SM17-anti TSLP 1# bsBp (bispecific antibody, human IgG4 S228P, kappa)
heavy: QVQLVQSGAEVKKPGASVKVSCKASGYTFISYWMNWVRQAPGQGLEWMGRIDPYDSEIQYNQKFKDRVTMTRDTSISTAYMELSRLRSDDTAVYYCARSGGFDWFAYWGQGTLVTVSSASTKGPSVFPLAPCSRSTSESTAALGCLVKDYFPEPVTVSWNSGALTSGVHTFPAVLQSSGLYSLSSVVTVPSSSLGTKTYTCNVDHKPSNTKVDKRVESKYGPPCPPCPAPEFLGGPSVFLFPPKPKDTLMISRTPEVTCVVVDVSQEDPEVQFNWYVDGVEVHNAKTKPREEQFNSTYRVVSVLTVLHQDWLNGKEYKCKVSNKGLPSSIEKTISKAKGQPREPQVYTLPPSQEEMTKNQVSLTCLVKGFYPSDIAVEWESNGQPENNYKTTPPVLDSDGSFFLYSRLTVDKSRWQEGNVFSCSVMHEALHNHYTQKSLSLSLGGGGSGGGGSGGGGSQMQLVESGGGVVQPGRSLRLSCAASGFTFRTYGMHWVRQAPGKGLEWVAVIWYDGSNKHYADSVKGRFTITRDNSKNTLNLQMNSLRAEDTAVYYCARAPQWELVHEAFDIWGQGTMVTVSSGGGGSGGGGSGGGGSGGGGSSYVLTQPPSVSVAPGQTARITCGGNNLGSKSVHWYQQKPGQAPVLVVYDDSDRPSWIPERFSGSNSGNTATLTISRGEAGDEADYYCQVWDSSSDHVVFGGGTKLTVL
light: DIQMTQSPSSLSASVGDRVTITCRASENINSNLAWYQQKPGKAPKLLLYDVTNLADGVPSRFSGSGSGTDYTLTISSLQPEDFATYYCQHFWGPPYTFGGGTKVEIKRTVAAPSVFIFPPSDEQLKSGTASVVCLLNNFYPREAKVQWKVDNALQSGNSQESVTEQDSKDSTYSLSSTLTLSKADYEKHKVYACEVTHQGLSSPVTKSFNRGEC
notes: SM17 IgG with an anti-TSLP scFv fused to the C-terminus of each heavy chain; expressed in ExpiCHO-S cells
In the experiment with human TSLP (R&D systems), B1 showed a dissociation constant Kd of 0.511 nM, a koff of 0.000241 s⁻¹ and a kon of 472000 M⁻¹ s⁻¹.

B2: SM17-anti TSLP 2# bsBp (bispecific antibody, human IgG4 S228P, kappa)
heavy: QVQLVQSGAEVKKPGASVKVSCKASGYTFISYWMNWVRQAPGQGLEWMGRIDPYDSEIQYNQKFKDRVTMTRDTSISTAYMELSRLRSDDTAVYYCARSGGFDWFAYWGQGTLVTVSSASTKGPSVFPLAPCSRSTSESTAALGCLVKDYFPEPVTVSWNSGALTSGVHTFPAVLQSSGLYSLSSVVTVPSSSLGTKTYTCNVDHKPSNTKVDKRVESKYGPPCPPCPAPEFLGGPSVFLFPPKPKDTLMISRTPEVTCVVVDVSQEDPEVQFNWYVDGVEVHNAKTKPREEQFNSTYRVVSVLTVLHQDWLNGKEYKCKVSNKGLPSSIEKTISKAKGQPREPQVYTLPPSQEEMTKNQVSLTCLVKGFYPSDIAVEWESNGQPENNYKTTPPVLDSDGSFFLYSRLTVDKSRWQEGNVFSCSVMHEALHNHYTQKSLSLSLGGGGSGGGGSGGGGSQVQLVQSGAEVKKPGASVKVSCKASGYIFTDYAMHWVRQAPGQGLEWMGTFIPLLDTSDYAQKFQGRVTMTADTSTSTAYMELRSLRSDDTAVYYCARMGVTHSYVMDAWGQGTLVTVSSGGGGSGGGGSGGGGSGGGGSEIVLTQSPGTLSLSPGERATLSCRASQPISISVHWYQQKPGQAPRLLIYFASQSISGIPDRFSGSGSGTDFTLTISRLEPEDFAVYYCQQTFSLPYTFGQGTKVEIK
light: B1 light
notes: SM17 IgG with an anti-TSLP scFv fused to the C-terminus of each heavy chain; also called SM17-anti-TSLP bsBp 2 #
In the experiment with human TSLP (R&D systems), B2 gave a Kd of less than 0.001 nM, an off-rate (koff) of less than 1e-07 s⁻¹ and a kon of 374000 M⁻¹ s⁻¹.

B3: SM17-anti IL-33 2# bsBp (bispecific antibody, human IgG4 S228P, kappa)
heavy: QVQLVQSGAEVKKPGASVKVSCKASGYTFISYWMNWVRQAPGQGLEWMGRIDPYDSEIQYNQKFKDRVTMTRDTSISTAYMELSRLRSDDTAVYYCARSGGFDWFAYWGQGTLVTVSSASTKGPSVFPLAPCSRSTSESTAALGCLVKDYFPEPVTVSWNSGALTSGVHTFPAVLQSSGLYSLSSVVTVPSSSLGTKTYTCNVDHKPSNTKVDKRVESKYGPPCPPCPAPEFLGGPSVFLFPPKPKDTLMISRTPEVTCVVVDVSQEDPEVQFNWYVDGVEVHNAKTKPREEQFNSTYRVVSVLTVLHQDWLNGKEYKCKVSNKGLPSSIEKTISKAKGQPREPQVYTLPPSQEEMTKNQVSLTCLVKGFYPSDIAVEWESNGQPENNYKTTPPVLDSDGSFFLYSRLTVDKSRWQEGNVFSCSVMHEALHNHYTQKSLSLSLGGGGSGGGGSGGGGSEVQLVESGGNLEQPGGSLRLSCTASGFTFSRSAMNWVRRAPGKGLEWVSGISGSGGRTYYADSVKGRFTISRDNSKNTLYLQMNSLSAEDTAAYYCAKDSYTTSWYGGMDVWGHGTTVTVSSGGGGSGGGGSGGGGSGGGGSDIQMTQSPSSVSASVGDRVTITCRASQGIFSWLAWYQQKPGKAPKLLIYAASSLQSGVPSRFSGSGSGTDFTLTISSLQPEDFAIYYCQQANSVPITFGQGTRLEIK
light: B1 light
notes: SM17 IgG with an anti-IL-33 scFv fused to the C-terminus of each heavy chain
In experiment [1], B3 came in with a Kd of less than 0.0259 nM, a dissociation rate constant (koff) of less than 1e-07 s⁻¹ and a kon of 37300 M⁻¹ s⁻¹.

B4: SM17-anti IL-33 1# bsBp (bispecific antibody, human IgG4 S228P, kappa)
heavy: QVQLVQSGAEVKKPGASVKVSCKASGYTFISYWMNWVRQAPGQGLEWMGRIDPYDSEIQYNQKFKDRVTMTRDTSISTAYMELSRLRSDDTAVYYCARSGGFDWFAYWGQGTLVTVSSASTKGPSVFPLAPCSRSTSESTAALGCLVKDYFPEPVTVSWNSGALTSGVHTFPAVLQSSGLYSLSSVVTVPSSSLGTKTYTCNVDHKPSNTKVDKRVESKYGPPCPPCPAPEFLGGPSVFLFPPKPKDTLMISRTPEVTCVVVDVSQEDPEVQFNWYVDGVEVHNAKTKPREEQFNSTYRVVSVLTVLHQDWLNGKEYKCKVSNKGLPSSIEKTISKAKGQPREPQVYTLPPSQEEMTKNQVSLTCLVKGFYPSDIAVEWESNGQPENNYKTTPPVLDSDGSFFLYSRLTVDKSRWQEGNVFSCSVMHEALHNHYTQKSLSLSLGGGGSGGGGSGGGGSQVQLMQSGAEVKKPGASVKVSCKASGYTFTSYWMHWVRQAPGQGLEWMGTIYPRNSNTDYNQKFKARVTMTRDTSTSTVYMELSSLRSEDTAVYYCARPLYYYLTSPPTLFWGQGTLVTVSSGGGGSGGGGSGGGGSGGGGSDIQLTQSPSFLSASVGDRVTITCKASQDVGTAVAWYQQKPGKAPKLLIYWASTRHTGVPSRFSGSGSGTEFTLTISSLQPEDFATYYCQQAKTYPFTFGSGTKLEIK
light: B1 light
notes: as for B3
In experiment [1], B4 came in with a Kd of 28.9 nM, a koff of 0.000283 s⁻¹ and a kon of 9810 M⁻¹ s⁻¹.

B5: SM17-anti IL-33 3# bsBp (bispecific antibody, human IgG4 S228P, kappa)
heavy: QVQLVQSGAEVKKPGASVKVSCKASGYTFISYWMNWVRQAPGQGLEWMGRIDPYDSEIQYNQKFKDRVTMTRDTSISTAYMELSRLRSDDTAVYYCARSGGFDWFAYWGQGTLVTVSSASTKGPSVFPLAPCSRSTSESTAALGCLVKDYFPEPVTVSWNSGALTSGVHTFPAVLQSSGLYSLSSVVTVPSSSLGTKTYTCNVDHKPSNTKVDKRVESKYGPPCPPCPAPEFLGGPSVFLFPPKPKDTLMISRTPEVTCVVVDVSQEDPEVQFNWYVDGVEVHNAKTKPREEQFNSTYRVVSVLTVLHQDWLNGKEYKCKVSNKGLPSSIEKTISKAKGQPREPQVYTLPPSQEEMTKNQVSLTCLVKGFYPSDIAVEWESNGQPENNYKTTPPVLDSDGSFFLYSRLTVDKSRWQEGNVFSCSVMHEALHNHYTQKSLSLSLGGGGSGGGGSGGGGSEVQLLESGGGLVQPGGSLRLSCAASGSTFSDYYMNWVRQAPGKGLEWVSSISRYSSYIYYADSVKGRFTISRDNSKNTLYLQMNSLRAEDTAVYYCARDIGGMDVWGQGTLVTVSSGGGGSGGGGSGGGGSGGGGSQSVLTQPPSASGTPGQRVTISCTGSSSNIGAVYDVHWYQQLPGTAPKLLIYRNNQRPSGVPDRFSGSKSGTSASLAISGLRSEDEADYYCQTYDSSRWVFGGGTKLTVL
light: B1 light
notes: as for B3
In experiment [1], B5 came in with a Kd of no more than 0.0425 nM, a koff of less than 1e-07 s⁻¹ and an on-rate (kon) of 22700 M⁻¹ s⁻¹.
